As a reminder, the Kd is the equilibrium constant for the complex coming apart. The koff is the rate constant with which the complex falls apart. The term kon denotes the rate constant with which the complex forms. A high value points to fast association.

The target of one test is human FcRn (human, UniProt P55899 24-297; P61769 21-119, limits assumed). The experiment in a line: Biacore, pH 6.0; human FcRn at pH 6.0, Biacore; parental IgG, not IgG-scFv. In general terms: In SPR one partner is held on a chip, and binding of the other changes the refractive index at the surface.
The next test deals with T1, LRP6 PD1/2 (human, UniProt O75581 19-629).
T1 construct: range 19-629; Recombinant soluble fragment; also called Propeller Domains 1-2 of LRP6; recombinant LRP6 PD1/2
T1 sequence (looked up): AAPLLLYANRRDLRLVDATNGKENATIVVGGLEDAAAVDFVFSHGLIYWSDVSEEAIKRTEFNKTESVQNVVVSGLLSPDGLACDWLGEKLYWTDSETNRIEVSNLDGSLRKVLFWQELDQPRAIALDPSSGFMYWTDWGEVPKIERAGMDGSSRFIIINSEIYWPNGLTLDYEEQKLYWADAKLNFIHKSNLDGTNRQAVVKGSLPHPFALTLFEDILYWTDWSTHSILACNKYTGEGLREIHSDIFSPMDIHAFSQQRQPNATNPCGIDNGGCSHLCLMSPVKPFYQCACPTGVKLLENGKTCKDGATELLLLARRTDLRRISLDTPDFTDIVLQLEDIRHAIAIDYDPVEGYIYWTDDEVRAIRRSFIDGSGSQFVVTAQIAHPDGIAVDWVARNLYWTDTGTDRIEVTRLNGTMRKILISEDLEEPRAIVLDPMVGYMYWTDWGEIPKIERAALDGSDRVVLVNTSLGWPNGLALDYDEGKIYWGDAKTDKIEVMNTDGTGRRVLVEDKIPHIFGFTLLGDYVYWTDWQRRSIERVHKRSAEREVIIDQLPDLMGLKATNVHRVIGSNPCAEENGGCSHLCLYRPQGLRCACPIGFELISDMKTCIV
Nature of the test: Biacore T-100 SPR, antibody captured by anti-human IgG Fc on a CM4 chip, PD1/2 injected; N = 4. As for the experimental part:
The carboxymethyl dextran surface was activated with a 7 min injection of a 1:1 ratio of 0.4 M EDC (1-Ethyl-3-[3-dimethylaminopropyl]carbodiimide hydrochloride) and 0.1 M NHS(N-hydroxysuccinimide). […] PD1/2 and PD3/4 were prepared as two fold concentration series starting at 50 nM, and injected at 30 μl/min for 1 min. […] The surfaces were then regenerated two times with 10 mM glycine (pH 2.2). […] PD3/4 at a saturating concentration of 100 nM was then flowed over the surface at a flow rate of 30 μl/min for 30 min. A saturating concentration of 100 nM PD1/2 was injected immediately after the PD3/4. The dissociation constant (KD), association (kₒₙ), and dissociation (koff) rates were calculated from the baseline subtracted corrected binding curves using the BIAevaluation software (GE Healthcare).

For another test, the target named is T2, cynoFcRn (cynomolgus monkey, UniProt Q8SPV9).
T2 construct: also called cynomolgus FcRn
The experiment in a line: Biacore, cynoFcRn at pH 6.0.

human FcRn, sequence (P55899 24-297 limits assumed, form in doubt, chain 1 of 2): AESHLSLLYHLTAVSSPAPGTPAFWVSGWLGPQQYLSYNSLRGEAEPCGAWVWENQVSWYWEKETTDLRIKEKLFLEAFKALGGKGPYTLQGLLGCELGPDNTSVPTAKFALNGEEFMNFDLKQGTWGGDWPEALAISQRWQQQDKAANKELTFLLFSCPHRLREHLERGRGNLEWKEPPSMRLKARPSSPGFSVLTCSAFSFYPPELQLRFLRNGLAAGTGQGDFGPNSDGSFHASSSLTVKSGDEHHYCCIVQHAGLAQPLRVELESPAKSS
human FcRn, sequence (P61769 21-119 limits assumed, form in doubt, chain 2 of 2): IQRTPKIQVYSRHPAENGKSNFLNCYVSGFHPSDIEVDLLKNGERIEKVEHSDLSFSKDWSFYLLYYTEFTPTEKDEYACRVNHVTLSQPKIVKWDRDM

B1: MOR08168 hIgG1LALA (antibody)
heavy: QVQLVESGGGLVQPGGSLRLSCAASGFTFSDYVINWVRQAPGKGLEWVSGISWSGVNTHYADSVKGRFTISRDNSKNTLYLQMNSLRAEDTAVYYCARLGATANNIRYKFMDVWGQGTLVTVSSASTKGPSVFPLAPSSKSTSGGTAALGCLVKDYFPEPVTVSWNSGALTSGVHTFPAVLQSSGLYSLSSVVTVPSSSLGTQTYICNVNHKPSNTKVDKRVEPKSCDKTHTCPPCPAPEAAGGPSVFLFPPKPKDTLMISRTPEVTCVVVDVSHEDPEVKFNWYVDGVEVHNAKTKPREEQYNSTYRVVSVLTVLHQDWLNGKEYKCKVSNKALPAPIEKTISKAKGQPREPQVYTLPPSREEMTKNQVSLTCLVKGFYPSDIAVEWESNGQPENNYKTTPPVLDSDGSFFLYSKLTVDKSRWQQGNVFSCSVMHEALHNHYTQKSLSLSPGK
light: DIELTQPPSVSVAPGQTARISCSGDSLRNKVYWYQQKPGQAPVLVIYKNNRPSGIPERFSGSNSGNTATLTISGTQAEDEADYYCQSYDGQKSLVFGGGTKLTVLGQPKAAPSVTLFPPSSEELQANKATLVCLISDFYPGAVTVAWKADSSPVKAGVETTTPSKQSNNKYAASSYLSLTPEQWKSHRSYSCQVTHEGSTVEKTVAPTECS
notes: Human IgG1 LALA / lambda; also called Propeller 1 IgG (MOR08168); MOR08168 (propeller 1 antibody)
As to B1, in the test with human FcRn, the Kd amounted to 23 nM. Further, in the test with LRP6 PD1/2, the equilibrium dissociation constant (Kd) is 1.08 nM, the off-rate (koff) is 9.05e-05 s⁻¹ and the kon turned out to be 87200 M⁻¹ s⁻¹. In the test with cynoFcRn, this molecule came in with a dissociation constant (Kd) of 280 nM.

The values are drawn from patent publication US20130058934A1 (Novartis, published 2013).
